Experimental data published in paper PMC5780510, “Insights into the molecular mechanism of dehalogenation catalyzed by D-2-haloacid dehalogenase from crystal structures” (Scientific Reports, 2018).

Target: the molecule itself
Experiment: crystal structure; hanging-drop vapour diffusion, 0.1 M MES pH 6.43, 4% PEG20000, 10% PEG8000, potassium sodium tartrate, 277 K; four monomers in each asymmetric unit

B1: D-2-haloacid dehalogenase HadD AJ1 from Pseudomonas putida AJ1/23, wild type (enzyme)
chain: MNLPDNSIHLQLPRPVCEAIIRPVPEHRADQELSEIYRDLKATFGVPWVGVITQAVAYYRPFFAEAWRRFAPSAKTHFFERASDDIRIRSWELMGQSFVIEGQTDRLREMGYSVREIGQIRAVLDIFDYGNPKYLIFATAIKEGLLSGRTFGGAAGDARCHFPRSPICQIDPIPVMVEEHHAGGTLSQVYADIKQTLQLPFINSDYKAMARWPSYLEQAWGALKPCIDTPAYQAGRFDINARALAALDALPTAYRMSRDDALQAGLSEAQTDELIQVISLFQWMLSGLVLNVTHFKQQALK
notes: D-2-haloacid dehalogenase HadD AJ1, Pseudomonas putida strain AJ1/23; the 909 bp hadd aj1 gene (ENA AAA25831.1) subcloned into pET-28a between NcoI and XhoI; Homotetramer in the crystal; it gives no residue limits; also called WT; D-DEX
  stoichiometry N: 4
